# Results as given in the DeepSol protein solubility set.
# Experiment: soluble on expression in E. coli; label from the status in PepcDB or PDB records
row,Sequence,soluble on expression in E. coli
1,MKREDLLRHLAETEVWDMIVIGGGATGLGTAVEAAGRGYRTLLLEQGDFAQGTSSRSTKLIHGGVRYLQQGNLTLVLEALRERGLLIRNAPHLVHNLSFVVPLYDWWEGPFYGIGLKLYDVLAGKLGLGPSRLLSREETLGHIPTVEPHGLRGGVIYHDGQFDDSRLAISLALTLADLGGVALNHFPVTGIISRDGLVAGVEARDRETGGAFRIMGRAVINAAGPFVDGVRRLADPAARDLIAPSQGVHLVLDGSFLPGDSAIMVPHTDDGRVLFAVPWHGRTVVGTTDTPIPAAGLEPRPLPEEIDFLLSHAARYLTRHPERRDVLSTFAGIRPLVRSDSGGDTASLSRDHTLLVEGSGLVTIAGGKWTTYRKMGEDTVTAAAQVAGLDHRPSVTETLRIHGWQEDATEGPLQVYGSDAAALEQLLRENAAWREPLHPALPYCAGEVVWGVRHEWARTVEDVLARRTRALLLDARAAVAAAPRVAELMARELGRDSDWQAAQVAAFTHLARGYLPELEHHHHHH,not soluble
2,MSIYTLGIDVGSTASKCIILKDGKEIVAKSLVAVGTGTSGPARSISEVLENAHMKKEDMAFTLATGYGRNSLEGIADKQMSELSCHAMGASFIWPNVHTVIDIGGQDVKVIHVENGTMTNFQMNDKCAAGTGRFLDVMANILEVKVSDLAELGAKSTKRVAISSTCTVFAESEVISQLSKGTDKIDIIAGIHRSVASRVIGLANRVGIVKDVVMTGGVAQNYGVRGALEEGLGVEIKTSPLAQYNGALGAALYAYKKAAKSAWSHPQFEK,soluble
3,MSLKILFASSESYPFIKTGGLGDVSYALPKALRKIGIDARVIIPKYSDIPEYFRYNTHHIASFGVPVGWRSQYGGLEYYEYDGVPFYFIDNDYYFKRSGLYGYYDDGERFAYFSRGVLQAITYMQDFNPDIIQCNDWQTAIIPVLLKDHYRNYRNYNHIKTIFTIHNLKYQGVFGKSVLGELLCLNEGYYNENALKFYDGISFMKGGILFSDKLSTVSRTYAEEIKDPYYGEHLDGLLRSRSYDLWGIVNGIDYDILNPETDKDLFFNFDSSTLYNKTKNKIELQKMLNLPVSENIPMIGIVSRLVSQKGLDLISCVLEDLLQDGIQLVVLGTGDAKYENMFKYFAWKYPNKLSANIQFNNSLAQKIYGASDMFLMPSKFEPCGIGQLIALRYGSLPIVRETGGLKDTVRPFNPITGEGNGFSFTNYNAHDMLHVIRNAEYFYYNEKYNWNKLVQTAMNDDNSWSKSAEIYRNLYMSVLEGHHHHHH,not soluble
4,MDLFADAPLTLPDADLRYLPHWLDAPLASAWLLRLEQETPWEQPILRIHGEEHPTPRLVAWYGDPDAAYRYSGQVHRPLPWTALLGEIRERVEREVGQRVNGVLLNYYRDGQDSMGWHSDDEPELRRDPLVASLSLGGSRRFDLRRKGQTRIAHSLELTHGSLLVMRGATQHHWQHQVAKTRRSCMPRLNLTFRLVYPQPLEHHHHHH,soluble
5,MTTDERKLFNHLKSPHLKYWVPFIWFGNLATKARNEGRIRDSVDLQSLMTEMNRYRSWCSLLFGYDWVGIPLVYTQVAEQLINPFGEDDDDFETNWCIDRNLQVSLLAVDEMHMSLPKMKKDIYWDDSAARPPYTLAAADYCIPSFLGSTVQMGLSGSDFPDEEWLWDYEKHGHRHSMIRRVKRFLSAHEHPSSPRRRSYRRQTSDSSMFLPRDDLSPARDLLDVPSRNPPRASPTWKKSCFPEGSPTLHFSMGELSTIRETSQTSTL,soluble
6,MGSDKIHHHHHHMFNLEEYTEKAQKVMMSIQDIMTRYRQNQLSSEHILLAILEEGNNVGVELLKELNVDINRLKDEVEVFIGKYGVRVPEGASVSQIFITPDARHVIEKAREEARRMGDSKIGTEHLILGMVLSPDSTAFRILSRYGVTPERVYEAIRKIRSTGKTDEAENVEALARFTVDLTQLAREKKLMPVVDREKEIRRVIQILSRRTKNNPVLIGDPGVGKTAVVEGLAQRIVEGKVPLFLRNVRVLKLDMGRLVAGTRFRGDFEERLKRLLDELKRKKGEVILFIDEVHTVVGAGAAEGALDAANIMKPELTTGEIQIIGATTVEEYRKYIEKDRALERRFQPVMVEEPTVEQTIEILKGLRKVFEEHHHVKITDDALEAAAKLSARYITNRFLPDKAVDLIDEAAAYVRLESSYPSEELLKLEEEIKNLEDKINDAVVKGEYEEAAKLKVELQKLKNEYEEKRKKQEKVEPVVDENVVAKIVEQWTGIPVSRIMESEREKLLKLEEFIHQRLVNQEEAVKIVARTIRRARVGIKNPRRPIGVFLFLGPTGVGKTELARTLADVLFGSEDAMIRLDMSEYMEKHSVARLIGAPPGYVGYEEGGQLTEAVRKRPYSVILLDEIEKAHPDVFNILLQVFEDGRLTDGKGNTVDFRNTIIIMTSNIGSEKILEMSENGVRIEIEKELRNTFKPEFLNRIDAIVYFKPLTMEEVKKIVEIMVRQLQEILKEKNISIELTERAKEYLAEAGYVPSLGARPLRRIIELELESMIADKILEGEIKEGDRVLVDADEYGLKIERR,not soluble
7,MSLWQPLVLVLLVLGCCFAAPRQRQSTLVLFPGDLRTNLTDRQLAEEYLYRYGYTRVAEMRGESKSLGPALLLLQKQLSLPETGELDSATLKAMRTPRCGVPDLGRFQTFEGDLKWHHHNITYWIQNYSEDLPRAVIDDAFARAFALWSAVTPLTFTRVYSRDADIVIQFGVAEHGDGYPFDGKDGLLAHAFPPGPGIQGDAHFDDDELWSLGKGVVVPTRFGNADGAACHFPFIFEGRSYSACTTDGRSDGLPWCSTTANYDTDDRFGFCPSERLYTRDGNADGKPCQFPFIFQGQSYSACTTDGRSDGYRWCATTANYDRDKLFGFCPTRADSTVMGGNSAGELCVFPFTFLGKEYSTCTSEGRGDGRLWCATTSNFDSDKKWGFCPDQGYSLFLVAAHEFGHALGLDHSSVPEALMYPMYRFTEGPPLHKDDVNGIRHLYGPRPEPEPRPPTTTTPQPTAPPTVCPTGPPTVHPSERPTAGPTGPPSAGPTGPPTAGPSTATTVPLSPVDDACNVNIFDAIAEIGNQLYLFKDGKYWRFSEGRGSRPQGPFLIADKWPALPRKLDSVFEEPLSKKLFFFSGRQVWVYTGASVLGPRRLDKLGLGADVAQVTGALRSGRGKMLLFSGRRLWRFDVKAQMVDPRSASEVDRMFPGVPLDTHDVFQYREKAYFCQDRFYWRVSSRSELNQVDQVGYVTYDILQCPED,soluble
8,MTLVSQIEAILFVVGEEGIGLEELAYLLEKSTAKTYEELTKLKEHYASDNKSALNILEVGNHFVLTTKKKYASLLKKYAQSPMSNALSQAALETLSIIAYKQPISRIEIDEIRGVQTSGSIQKLVARQLIEEKGRVDGPGRAILYGTTKYFMDYFGLKSLDELPDIQQMEDELEEELPMDLFFDRYQETNPMSETTEGEEA,not soluble
9,MDTPSLTPWLSIVGISEEGWLALTPIAQQCILQADILVGSDRHFDLLPSLPGAEQWRWGSPFSATITQILERRGQSICILASGDPMCYGVGSLLAQRLPLTELQILPAPSAFSLACSRLGWALPEVETLSLCGRDPALLNALLYPGAKILALSADRSTPATIAEQLCQQGWGSSRLTVLEHLGGPKERKISEIAEHWSQPTIASLNTVAIECHARDRDLIVPPRLTGLPDAAYHHDGQLTKREVRAITLAALAPLPGQLLWDVGAGCGSIGIEWMRSDRRCRAIAIEQHPQRLQIITQNAIALGVPNLQVVAGSAPATLSGLPQPDAIFIGGGVTAPGVLDQCWQALPMGGRLVVNAVTLESEQVVLAGQQRWGGDLIRVAVQRAEPIGRFLGWKSLAPITQWTVKKTALEHHHHHH,not soluble
10,MGSDKIHHHHHHMESMLKKICQDPVLQKDKDFLLFLTSDDFSSESKKRAFLTGSGAINDSNDLSEVRISEIQLLGAEDAAEVLKNGGIDAESHKGFMSISFSSLPKYNEADEFFIEKKQKIDELEDNLKKLSKSLEMVDTSRNTLAASTEEFSSMVETLASLNVSEPNSELLNNFADVHKSIKSSLERSSLQETLTMGVMLDDYIRSLASVKAIFNQRSKLGYFLVVIENDMNKKHSQLGKLGQNIHSEKFREMRKEFQTLERRYNLTKKQWQAVGDKIKDEFQGFSTDKIREFRNGMEISLEAAIESQKECIELWETFYQTNL,not soluble
11,MGSDKIHHHHHHMQYTELVPGTLIRRYKRFLADVALASGDVVVAHCPNTGSMRAVDVPGCRVWLSPSRNPARKLAWTWELIELPMPDAPPALVSVHTGRANALVAQALQEARIPELAGYDTHKREVRVADARLDFRLSTAHAAAYVEVKQVTLREHDGHGYFPDSVSERGRRHLEALAARVAEGDRAVLLFCVAHTGIDAVAPAAHLDPAYAETLRRVAAQGVEVLAYGMSATWTHDGVPGDIALTRALPVSLERRLASATPLSD,not soluble
12,MGSDKIHHHHHHMNGQKIIGSQCITQCNPDLRITELIIPGTHDSATSTCYERYYRTQDLSIAEQLDCGVRFLDIRLRKEMVAAHREWVSDIRAEEIFEKCGEFLQKNPQEFVLMRIQNANERKDDFPEYGEALLSKVQQYKSLFYAWDHSQIVQDGNPKWPTIAQAAGKIVPIECAPPSMSINKIDGELWAANWHDNSQILLQDLWDGPTVEEKCVAIKTLIEKGREVHSDILLLNHISATNGELQYPDAYAAYLNEYSSRLWKQLAKRSFRGVQIYDFINPSICQELLRLNFD,not soluble
13,MDIRKEFEHLQYFFDSYYNQTFYNAQLEEQFLRFLADEPEWVVRALKLEVEKLERIHHRRDTETWAKIEELVHENSMRYFSFEDGKTFIKVASLLLKDID,not soluble
14,MGSDKIHHHHHHMKGKYRVGLISFSDGREYVHRELEGIVKKFEDEIAKTLEETGEVEVIRAKEIVWKPSIAKREARRLAEEGAEVTIFNYAVWAFPHFTVLASKFAPGPFLLFSNINPQYPGMVAMLSAAGALEQDGTKHYRMWGNIKDEKVLRKVMAFIRAGSTYKKLRGQRYGVFGGRSMGMYTAVPNVDLWNKIFGVDVEHIDQFEIVRRSQLIPDERARKGRLWIEEKAKAVHYDGKYLTPEKLELQIKSYHAVREIVEEMELDFVGIKGQLELTEHFVTMDVTETFLNDPYDWEGEHEPIVCATEADSDGALTMQIFKLIAKTPVLFADVRHYVEEYDVLDLCNSGNHATYFAARSFDPDENMKKVEFYPQTFYFPAGGAAVKHIAAPGKVTLGRLTREDGRYRFTVVPGEFVDFGEEKNYEIADSIQNNWPHAFLKMETPIDEFLAKYSSNHIHGVYGDYVEEIKTFCEIASIDFVLMK,not soluble
15,MSLASYLDFEKNIQQIDEDIINAQIKGDTEAVSILKKNLEKEISKTYKNLSDFQRLQLARHPDRPYALDYIELILNDAHEIHGDRAFRDDPAIVCFMGYLGEKKIIVIGEQKGRGTKDKIARNFGMPHPEGYRKALRVAGLAEKFQIPILFLIDTPGAYPGIGAEERGQSEAIARNLYELSDLKIPTIAIVIGEGGSGGALAIGVADKLAMMKNSVFSVISPEGCAAILWNDPAKSEAATKAMKVTADDLKSQGLIDDVIDEPTNGAHRNKEAAAVAIADYVKKSLNELENIDVRELSANRMQKILKLGAYQEAEGHHHHHH,soluble
16,MTQVTVKELAQVVDTPVERLLLQMRDAGLPHTSAEQVVTDSEKQALLTHLKGSHGDRASEPRKITLQRKTTTTLKVGGSKTVSVEVRKKKTYVKRSPDEIEAERQRELEEQRAAEEAERLKAEEAAARQRAEEEARKAEEAARAKAAQEAAATAGAEPAVVADVAVAEPVAKPAAVEERKKEEPRRVPKRDEDDDRRDRKHTQHRPSVKEKEKVPAPRVAPRSTDEESDGYRRGGRGGKSKLKKRNQHGFQNPTGPIVREVNIGETITVAELAAQMSVKGAEVVKFMFKMGSPVTINQVLDQETAQLVAEELGHKVKLVSENALEEQLAESLKF,not soluble
17,MAHHHHHHMSRCGRKLDMSSGYWLPRRLLLVRHGESEANVDRALYSKVPDWKIPLTARGREQAFECGRRLRKIIKNEKLYVYYSPYTRTRQTLTEVRKSLLPSQVQGEREDERLREQEIGNFQPLDKMDEMWAERSEFGRSYYRFPDGESSVDVGDRVSKFFDSLFRERVELNYLSARKQMITGSSNDVGPASFTVPDDDDHNVVIISHGLLIRLFVGRWYSAPMEVFETMKNPPNCGIVVLERREAGRLVMTDTSKKLFGSDPLLEMMKFDGKDNVQLFRHLFAEGGYSFSAGEGTDR,soluble
